# T1: thio GLP-1 (GLP-1 7-36 with a thioamide at the Ala8-Glu9 scissile bond)
# T1 chain: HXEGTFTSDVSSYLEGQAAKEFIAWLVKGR
# Molecular target: T1, thio GLP-1 (GLP-1 7-36 with a thioamide …)
protein,measurement,value
dipeptidyl peptidase 4 (DPP-4) (protein) SRKTYTLTDYLKNTYRLKLYSLRWISDHEYLYKQENNILVFNAEYGNSSVFLENSTFDEFGHSINDYSISPDGQFILLEYNYVKQWRHSYTASYDIYDLNKRQLITEERIPNNTQWVTWSPVGHKLAYVWNNDIYVKIEPNLPSYRITWTGKEDIIYNGITDWVYEEEVFSAYSALWWSPNGTFLAYAQFNDTEVPLIEYSFYSDESLQYPKTVRVPYPKAGAVNPTVKFFVVNTDSLSSVTNATSIQITAPASMLIGDHYLCDVTWATQERISLQWLRRIQNYSVMDICDYDESSGRWNCLVARQHIEMSTTGWVGRFRPSEPHFTLDGNSFYKIISNEEGYRHICYFQIDKKDCTFITKGTWEVIGIEALTSDYLYYISNEYKGMPGGRNLYKIQLSDYTKVTCLSCELNPERCQYYSVSFSKEAKYYQLRCSGPGLPLYTLHSSVNDKGLRVLEDNSALDKMLQNVQMPSKKLDFIILNETKFWYQMILPPHFDKSKKYPLLLDVYAGPCSQKADTVFRLNWATYLASTENIIVASFDGRGSGYQGDKIMHAINRRLGTFEVEDQIEAARQFSKMGFVDNKRIAIWGWSYGGYVTSMVLGSGSGVFKCGIAVAPVSRWEYYDSVYTERYMGLPTPEDNLDHYRNSTVMSRAENFKQVEYLLIHGTADDNVHFQQSAQISKALVDVGVDFQAMWYTDEDHGIASSTAHQHIYTHMSHFIKQCFSLP,cleavage of Gly-Pro-pNA substrate by DPP-4,did not inhibit cleavage of Gly-Pro-pNA substrate at 100 µM
